# Test results as given in doi:10.1101/2022.07.14.500063.
# Tests used:
# [1] = target: Delta RBD+L455S (SARS-CoV-2) (UniProt P0DTC2)
# [2] = target: Delta+L455F Spike on pseudotyped lentivirus (SARS-CoV-2) (UniProt P0DTC2)
# [3] = target: Delta+Y453F Spike on pseudotyped lentivirus (SARS-CoV-2) (UniProt P0DTC2)
# [4] = target: Delta RBD+E406D (SARS-CoV-2) (UniProt P0DTC2)
# [5] = target: Delta RBD+E406Q (SARS-CoV-2) (UniProt P0DTC2)
# [6] = target: Delta RBD+L455S (SARS-CoV-2) (UniProt P0DTC2); remark: listed apart in the source
substance,measurement,setting,value
casirivimab (REGN10933) (antibody),fold reduction in pseudoviral neutralization titre against wild-type Delta,[1],155 fold
same,fold reduction in pseudoviral neutralization titre against wild-type Delta,[2],17 fold
same,fold reduction in pseudoviral neutralization titre against wild-type Delta,[3],16 fold
same,fold reduction in pseudoviral neutralisation titre,[4],2 fold
same,fold reduction in pseudoviral neutralisation titre,[5],12 fold
same,fold reduction in pseudoviral neutralisation titre,[6],65 fold
